Test results as given in the supplement of paper PMC10567573.

B1: LOXL2 (parent)
chain: FSPDGPSRFRKAYKPEQPLVRLRG

Variants of: B1
Test: protein stability index of a GFP-peptide fusion (GPS, HEK-293T) (PSI 1-6); higher = more stable
Details: c terminus: a fixed tail appended
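Also: lentivirally expressed fusions sorted by FACS into six bins by GFP to DsRed ratio, PSI derived from sequencing read proportions per bin multiplied by bin number.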

Variant | protein stability index
P15W | 1.5
P15E | 1.43
P15A | 1.85
P15D | 1.68
P15R | 2.88
P15F | 1.83
P15H | 1.7
P15G | 2.48
P15I | 2.07
P15T | 1.41
P15S | 3.74
P15N | 2.52
P15Y | 1.6
P15V | 2.28
G5H | 2.65
G5C | 2.03
G5K | 2.17
G5L | 2.02
G5Q | 2.33
G5I | 2.51
G5F | 2.33
G5E | 2.35
G5S | 2.38
G5A | 1.47
G5V | 1.59

Variant | protein stability index
G5Y | 1.83
G5T | 1.92
G5N | 2.66
G5R | 1.74
G5M | 1.69
G5D | 1.62
G5P | 2.21
S7K | 1.94
S7C | 3.07
S7P | 2.18
S7F | 2.09
S7V | 1.64
S7Y | 2.62
S7M | 1.96
S7T | 1.49
S7A | 1
S7L | 4
S7R | 2.05
S7D | 1.69
R8K | 1.27
R8S | 2.66
R8F | 2.75
R8Q | 2.42
R8H | 2.23
R8P | 2.76

Variant | protein stability index
R8D | 2.31
R8I | 4.19
R8L | 1.5
R8Y | 2.66
R21M | 1.59
R21W | 1.92
R21E | 1.99
R21C | 2.37
R21T | 1.53
R21H | 2.25
R21P | 1.77
R21G | 1.67
R21N | 1.61
R21L | 1.26
R21V | 1.65
R21K | 1.25
R21F | 2.12
R21Q | 1.8
R23D | 2.78
R23M | 2.33
R23E | 2.46
R23S | 1.82
R23V | 1.98
R23K | 1.53
R23Y | 1.2

Variant | protein stability index
R23P | 1.85
R23H | 1.85
R23C | 2.39
R23I | 2.31
R23L | 1.37
R23A | 1.89
R23W | 2.25
R23Q | 2.13
S2V | 2.07
S2L | 1.92
S2W | 1.84
S2K | 3.23
S2R | 2.96
S2P | 1.97
S2M | 2.37
S2N | 2.01
S2F | 2.48
S2E | 3.62
S2D | 3.05
S2H | 2.68
Q17D | 2.08
Q17P | 2.81
Q17I | 2.18
Q17L | 2.03
Q17V | 2.21

Variant | protein stability index
Q17W | 1.28
Q17H | 1.46
Q17G | 2.53
Q17A | 2.07
Q17K | 1.54
Q17M | 2.48
Q17C | 2.65
Q17F | 2.74
P18I | 1.95
P18A | 2.07
P18K | 2.38
P18F | 1.11
P18E | 1.82
P18L | 1.89
P18Y | 1.65
P18G | 1.66
P18Q | 2.17
P18W | 2.44
L19I | 2.36
L19M | 1.82
L19W | 2.04
L19T | 1.89
L19Q | 2.56
L19V | 1.41
L19S | 2.29

Variant | protein stability index
L19H | 1.45
L19G | 2.08
L19K | 1.65
L19D | 2.46
L19P | 1.23
G24M | 2.72
G24R | 2.79
G24S | 1.41
G24L | 3.27
G24P | 1.82
G24Y | 1.85
G24N | 1.91
G24K | 1.69
G24T | 1.38
G24D | 1.8
G24C | 2.27
G24Q | 2.72
G24F | 1.73
G24A | 2.71
F9K | 2.58
F9C | 2.78
F9D | 3.29
F9V | 2.05
F9A | 2.52
F9E | 3.71

Variant | protein stability index
F9H | 2.81
F9I | 2.23
F9Q | 3.94
F9N | 2.85
F9M | 2.56
F9Y | 3.04
F9S | 2.56
F9W | 2.45
F9P | 3.29
R10C | 3.46
R10I | 2.8
R10E | 2.5
R10L | 1.97
R10F | 4
R10P | 2.14
R10Q | 1.99
R10K | 1.75
R10N | 1.94
R10Y | 1.98
R10H | 1.02
R10V | 2.46
R10G | 1.78
R10S | 3.35
E16F | 1.39
E16A | 1.96

Variant | protein stability index
E16T | 2.09
E16Q | 2.92
E16I | 3.39
E16C | 2.49
E16D | 2.65
E16G | 1.54
E16N | 1.64
E16V | 1.85
E16Y | 2.75
E16P | 1.72
K14A | 2.1
K14E | 1.83
K14S | 1.48
K14H | 2.06
K14V | 2.71
K14F | 1.72
K14D | 1.86
K14Y | 2.61
K14P | 1.95
K14I | 2.86
K14L | 2.46
K14W | 1.99
K14T | 3.59
K14R | 1.54
K14Q | 1.76

Variant | protein stability index
K14M | 2.19
A12G | 2.44
A12S | 1.9
A12K | 2
A12Q | 1.96
A12Y | 1.91
A12L | 2.35
A12N | 2.11
A12H | 1.8
A12P | 2.13
A12V | 2.3
A12F | 1.57
A12E | 2.15
A12R | 1.42
A12D | 2.03
Y13A | 2.05
Y13F | 1.91
Y13N | 2.15
Y13T | 1.69
Y13W | 3.28
Y13D | 3.33
Y13I | 1.54
Y13H | 1.81
Y13S | 2.44
P3I | 2.26

Variant | protein stability index
P3H | 1.9
P3Q | 2.17
P3S | 2.31
P3D | 2
P3E | 1.97
P3V | 2.6
P3C | 1.97
P3W | 1.66
P3T | 2.21
P3M | 2.33
P3R | 2.12
P3Y | 2.13
P3L | 1.96
P3A | 1.79
F1H | 3.79
F1L | 4.19
F1P | 4.03
F1Y | 1.83
F1C | 3.23
F1I | 2.95
F1V | 3.65
F1Q | 3.85
F1M | 2.95
F1G | 3.2
F1R | 4.12

Variant | protein stability index
F1E | 3.56
F1A | 2.9
F1D | 3.9
F1W | 3.12
F1S | 3.92
D4W | 2.58
D4H | 1.41
D4S | 1.52
D4P | 1.07
D4A | 1.62
D4L | 1.78
D4F | 1.66
D4N | 1.73
D4T | 2.01
D4I | 1.71
D4K | 1.97
D4M | 1.71
D4G | 1.98
D4Y | 2.82
L22M | 2.04
L22D | 1.93
L22H | 1.52
L22G | 1.9
L22W | 1.47
L22R | 2.35

Variant | protein stability index
L22P | 2.05
L22S | 1.74
L22Y | 1.75
L22C | 1.95
L22K | 1.58
L22Q | 1.99
L22I | 2.42
V20P | 1.92
V20W | 3.13
V20S | 1.34
V20G | 1.41
V20A | 2.26
V20T | 1.92
V20K | 1.37
V20E | 1.74
V20Y | 2.17
V20Q | 1.4
V20D | 2.34
V20N | 2.42
V20H | 1.63
V20F | 2.99
V20R | 2.51
V20I | 2.62
V20C | 1.85
K11G | 2.27

Variant | protein stability index
K11N | 2.7
K11Q | 3.17
K11F | 2.21
K11S | 1.62
K11M | 2.98
K11H | 1.64
K11L | 2.31
K11E | 3.54
K11T | 3.77
K11D | 1.28
K11R | 2.72
K11P | 2.41
P6M | 1.56
P6Y | 2.16
P6Q | 2.16
P6A | 2.22
P6G | 1.54
P6K | 1.98
P6N | 1.8
